From patent US20160264674A1 (ADURO BIOTECH HOLDINGS EUROPE B V, published 2016)
Changes are numbered by the printed parent chain. Numbers in names are those of the source. Where two headings read alike, the source gives them in different places.

T1: FLAG-tagged human APRIL (human, UniProt O75888 105-250, limits assumed)
T1 construct: also called FLAG-tagged APRIL; FLAG-APRIL; not shown: FLAG tag
T1 sequence (looked up): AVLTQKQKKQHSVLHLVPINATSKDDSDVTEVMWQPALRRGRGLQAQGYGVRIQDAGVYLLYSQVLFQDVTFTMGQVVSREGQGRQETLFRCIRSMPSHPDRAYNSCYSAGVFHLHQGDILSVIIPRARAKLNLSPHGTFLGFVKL

B1: hAPRIL.01A (antibody, mouse IgG1, kappa, V domains shown)
VH: EVQLQQSGPELVKPGASVKMSCKASGYTFTSYVMHWVKQKPGQGLEWIGYINPYNDAPKYNEKFKGKATVTSDKSSGTAYMELSSLTSEDSAVYYCARGLGYALYYAMDYWGQGTSVTVSS
VL: DIVMTQSQKFKSTSVGDRVSVTCKASQNVGNNVAWYQQKAGQSPKALISSASNRDSGVPDRFTGSGSGTDFTLTISNVQSEDLADYFCQQYNIYPFTFGSGTKLEIKR
notes: Mouse antibody; also called mouse hAPRIL.01A antibody
B2: VH14_1.VL15 (antibody, human IgG4, V domains shown)
VH: QVQLVQSGAEVKKPGASVKVSCKASGYTFTSYVMHWVRQAPGQGLEWMGYINPYNDAPKYNEKFKGRVTMTSDTSASTAYMELSSLRSDDTAVYYCARGLGYALYYAMDYWGQGTTVTVSS
VL: DIVMTQSPSTLSASVGDRVTITCKASQNVGNNVAWYQQKPGKAPKLLISSASNRDSGVPSRFSGSGSGTEFTLTISSLQPDDFATYFCQQYNIYPFTFGQGTKLEIK
notes: VH14 with R72S; rest is human IgG4 (S241P, Kabat) and human kappa; also called 14_1.15; antibody 14_1.15
B3: VH11.VL15 (antibody, human IgG4 S228P, kappa, V domains shown)
VH: B2 VH with G44R, M70I, S72R, D89E
VL: DIVMTQSPSTLSASVGDRVTITCKASQNVGNNVAWYQQKPGKAPKLLISSASNRDSGVPSRFSGSGSGTEFTLTISSLQPDDFATYFCQQYNIYPFTFGQGTKLEIKR
notes: Humanized IgG4 (S241P, Kabat) with human kappa, from HEK293T; also called 11.15

Key:
[1] = biological target: T1, FLAG-tagged human APRIL; experiment: FLAG-APRIL ELISA after 10 min at 65 °C, antibody at 1 µg/ml
Experimental: (§1) The plasmids encoding the VH and VL constructs were mixed in a 1:3 ratio (4 μg in total) and transiently expressed by transfection into HEK293T human embryonic kidney cells (HEK293T/17, ATCC-CRL-11268), using Lipofectamine 2000 transfection reagent (Invitrogen) following the manufacturer's instructions. Cell supernatants were harvested after 5 days and tested for expression of antibody and binding to APRIL using an enzyme-linked immuno assay (ELISA). In these ELISAs, all incubation steps were followed by a wash step with PBST (PBS with 0.01% Tween 20). Maxisorb 96-wells plates (Nunc) were coated with 0.5 μg/ml anti-FLAG (Sigma) or anti-IgG4 (Jackson laboratories) and incubated overnight at 4° C. Subsequently the anti-FLAG coated 96-wells plates were incubated with FLAG-tagged human APRIL for 1 hour at room temperature. Next, supernatants and dilutions thereof were incubated for 1 hour, which was followed by an incubation of 1 hour with mouse anti-human IgG HRP-conjugate (Southern Biotechnology).
(§2) To determine the effect of humanization on the stability of the antibodies, humanized antibodies were exposed to a range of temperatures for 10 minutes. Purified antibodies were diluted to 3.16 μg/ml and dilutions thereof in PBS. Next, these solutions were exposed to 65° C. or 70° C. and residual binding after heat treatment of the antibodies was measured using the FLAG-tagged APRIL ELISA assay as described before (see Table 6).

[2] = biological target: T1, FLAG-tagged human APRIL; experiment: FLAG-APRIL ELISA after 10 min at 70 °C, antibody at 1 µg/ml
Experimental: as §1, §2

[3] = biological target: T1, FLAG-tagged human APRIL; experiment: FLAG-APRIL ELISA after 10 min at 65 °C, antibody at 3.16 µg/ml
Experimental: as §1, §2

[4] = biological target: T1, FLAG-tagged human APRIL; experiment: FLAG-APRIL ELISA after 10 min at 70 °C, antibody at 3.16 µg/ml
Experimental: as §1, §2

[5] = biological target: T1, FLAG-tagged human APRIL; experiment: FLAG-APRIL ELISA after 10 min at 65 °C, antibody at 0.316 µg/ml
Experimental: as §1, §2

[6] = biological target: T1, FLAG-tagged human APRIL; experiment: FLAG-APRIL ELISA after 10 min at 70 °C, antibody at 0.316 µg/ml
Experimental: as §1, §2

[7] = biological target: T1, FLAG-tagged human APRIL; experiment: ELISA: FLAG-tagged human APRIL captured on anti-FLAG plate, purified antibody titrated
[8] = biological target: T1, FLAG-tagged human APRIL; experiment: as above; remark: listed apart in the source
[9] = biological target: T1, FLAG-tagged human APRIL; experiment: competition ELISA: antibody premixed with FLAG-tagged APRIL, added to coated Fc-BCMA, anti-FLAG HRP
Experimental: Again, plasmids encoding the VH and VL constructs were mixed in a 1:3 ratio (32 μg) and transiently expressed by transfection into (8*10⁶) HEK293T human embryonic kidney cells (HEK293T), using Lipofectamine 2000 transfection reagent (Invitrogen) according to the manufacturer's instructions. Supernatants were harvested (10 ml) and antibodies were purified using MabSelect Sure Protein A resin according to the manufacturer's instructions (GE Healthcare). Buffer was exchanged for PBS using Zeba desalting columns (Thermo Scientific). The concentration of purified antibodies was determined based on OD280 (Nanodrop ND-1000). The binding of the purified antibodies to APRIL was established using the above described APRIL ELISA. The blocking capability of the humanized antibodies with BCMA and TACI receptors, was tested in a competition ELISA. In these ELISAs, all incubation steps were followed by a wash step with PBST (PBS with 0.01% Tween 20). Maxisorb 96-wells plates (Nunc) were coated with 0.5 μg/ml Fc-BCMA (R&D Systems) or Fc-TACI (R&D Systems) and incubated overnight at 4° C. […] Reactions were stopped with 100 μl 0.5 M H2504 and absorbances were measured at 450 and 620 nm. Calculated EC₅₀ and IC₅₀ representing the concentration at which 50% of the total binding signal or blocking is observed are represented in Table 5. […]

[10] = biological target: T1, FLAG-tagged human APRIL; experiment: as above; remark: listed apart in the source
Experimental: (§3) A subset of humanized antibodies described above was selected for further analyses. Again, plasmids encoding the VH and VL constructs were mixed in a 1:3 ratio (32 μg) and transiently expressed by transfection into (8*10⁶) HEK293T human embryonic kidney cells (HEK293T), using Lipofectamine 2000 transfection reagent (Invitrogen) according to the manufacturer's instructions. Supernatants were harvested (10 ml) and antibodies were purified using MabSelect Sure Protein A resin according to the manufacturer's instructions (GE Healthcare). Buffer was exchanged for PBS using Zeba desalting columns (Thermo Scientific). The concentration of purified antibodies was determined based on OD280 (Nanodrop ND-1000). The binding of the purified antibodies to APRIL was established using the above described APRIL ELISA. The blocking capability of the humanized antibodies with BCMA and TACI receptors, was tested in a competition ELISA. In these ELISAs, all incubation steps were followed by a wash step with PBST (PBS with 0.01% Tween 20). Maxisorb 96-wells plates (Nunc) were coated with 0.5 μg/ml Fc-BCMA (R&D Systems) or Fc-TACI (R&D Systems) and incubated overnight at 4° C. Next, humanized antibodies and dilutions thereof were incubated, premixed with FLAG-tagged APRIL, for 1 hour, which was followed by an incubation of 1 hour with anti-FLAG HRP-conjugate (Sigma). Immunoreactivity was visualized with 100 μl TMB Stabilized Chromagen (Invitrogen). Reactions were stopped with 100 μl 0.5 M H2504 and absorbances were measured at 450 and 620 nm. Calculated EC₅₀ and IC₅₀ representing the concentration at which 50% of the total binding signal or blocking is observed are represented in Table 5.
The antibodies were tested for binding, blockade, and stability as described before.

[11] = biological target: T1, FLAG-tagged human APRIL; experiment: FLAG-APRIL ELISA after 10 min at 65 °C, antibody at 1 µg/ml; remark: listed apart in the source
Experimental: as §1, §2
(§4) In addition, the stability of the substituted humanized antibodies was improved as determined using thermostability studies as described in Example 3 (see Table 9).

[12] = biological target: T1, FLAG-tagged human APRIL; experiment: FLAG-APRIL ELISA after 10 min at 70 °C, antibody at 1 µg/ml; remark: listed apart in the source
[13] = biological target: T1, FLAG-tagged human APRIL; experiment: FLAG-APRIL ELISA after 10 min at 65 °C, antibody at 3.16 µg/ml; remark: listed apart in the source
Experimental: as §1, §2, §4

[14] = biological target: T1, FLAG-tagged human APRIL; experiment: FLAG-APRIL ELISA after 10 min at 70 °C, antibody at 3.16 µg/ml; remark: listed apart in the source
[15] = biological target: T1, FLAG-tagged human APRIL; experiment: FLAG-APRIL ELISA after 10 min at 65 °C, antibody at 0.316 µg/ml; remark: listed apart in the source
Experimental: as §1, §2, §4

[16] = biological target: T1, FLAG-tagged human APRIL; experiment: FLAG-APRIL ELISA after 10 min at 70 °C, antibody at 0.316 µg/ml; remark: listed apart in the source
[17] = biological target: T1, FLAG-tagged human APRIL; experiment: ELISA: FLAG-tagged human APRIL captured on anti-FLAG plate, purified antibody titrated; remark: listed apart in the source
Experimental: as §1
as §3, with “(Sigma).” for “(Sigma). Immunoreactivity was visualized with 100 μl TMB Stabilized Chromagen (Invitrogen). Reactions were stopped with 100 μl 0.5 M H2504 and absorbances were measured at 450 and 620 nm. Calculated EC₅₀ and IC₅₀ representing the concentration at which 50% of the total binding signal or blocking is observed are represented in Table 5.”

[18] = biological target: T1, FLAG-tagged human APRIL; experiment: competition ELISA: antibody premixed with FLAG-tagged APRIL, added to coated Fc-BCMA, anti-FLAG HRP; remark: listed apart in the source
Experimental: A subset of humanized antibodies described above was selected for further analyses. Again, plasmids encoding the VH and VL constructs were mixed in a 1:3 ratio (32 μg) and transiently expressed by transfection into (8*10⁶) HEK293T human embryonic kidney cells (HEK293T), using Lipofectamine 2000 transfection reagent (Invitrogen) according to the manufacturer's instructions. Supernatants were harvested (10 ml) and antibodies were purified using MabSelect Sure Protein A resin according to the manufacturer's instructions (GE Healthcare). Buffer was exchanged for PBS using Zeba desalting columns (Thermo Scientific). The concentration of purified antibodies was determined based on OD280 (Nanodrop ND-1000). The binding of the purified antibodies to APRIL was established using the above described APRIL ELISA. The blocking capability of the humanized antibodies with BCMA and TACI receptors, was tested in a competition ELISA. In these ELISAs, all incubation steps were followed by a wash step with PBST (PBS with 0.01% Tween 20). […] Reactions were stopped with 100 μl 0.5 M H2504 and absorbances were measured at 450 and 620 nm. Calculated EC₅₀ and IC₅₀ representing the concentration at which 50% of the total binding signal or blocking is observed are represented in Table 5.

Binder | % residual binding after heat treatment (room temperature = 100%) [1] [%] | % residual binding after heat treatment (room temperature = 100%) [2] [%] | % residual binding after heat treatment (room temperature = 100%) [3] [%] | % residual binding after heat treatment (room temperature = 100%) [4] [%] | % residual binding after heat treatment (room temperature = 100%) [5] [%] | % residual binding after heat treatment (room temperature = 100%) [6] [%] | EC50 [7] [nM] | EC50 [8] [nM] | IC50 [9] [nM] | IC50 [10] [nM] | % residual binding after heat treatment (room temperature = 100%) [11] [%] | % residual binding after heat treatment (room temperature = 100%) [12] [%] | % residual binding after heat treatment (room temperature = 100%) [13] [%] | % residual binding after heat treatment (room temperature = 100%) [14] [%] | % residual binding after heat treatment (room temperature = 100%) [15] [%] | % residual binding after heat treatment (room temperature = 100%) [16] [%] | EC50 [17] [nM] | IC50 [18] [nM]
B1 | 8.4 | 4.9 | 27.1 | 6.7 | 13.7 | 11.2 | 0.16 | 0.16 | 0.46 | 0.46 | – | – | – | – | – | – | – | –
B2 | – | – | – | – | – | – | 1.29 | 1.29 | 2.63 | 2.63 | 46.1 | 38.3 | 59.9 | 38 | 71 | 63 | – | –
B3 | 55.1 | 62.4 | 63.1 | 59.1 | 74.6 | 82 | – | – | – | – | – | – | – | – | – | – | 121 | 4.3
